Experimental data from US11008365B2 (NATIONAL INSTITUTE OF ADVANCED INDUSTRIAL SCIENCE AND …, priority 2016, dated 2021).
Entries after “also recorded” stand apart in the source; their conditions may differ.

Legend:
[1] = target: T1, CH1-CL domain forming a non-native three-dimensional structure (Homo sapiens, UniProt P01834+P01857); test: SPR of synthetic peptides on immobilized acid-treated CH1-CL domain; format: binding; conditions: for Non-native CH1-CL domain (whether affinity was present or not): SPR Biacore T100, peptides 4-1 μM (FIG. 5), 50-1.6 μM (FIG. 6), 64-2 μM (FIG. 7); for affinity / binding response compared to AF.ab9: SPR, non-native CH1-CL domain immobilized, FIGS. 6 and 7
T1 construct: made in house; host or cells: Escherichia coli BL21(DE3)
Description: Here, the AF.ab9 body is a 16-residue polypeptide consisting of the 8-residue linker region and the 8-residue microprotein chignolin, and the AF.ab9 arm is a 10-residue polypeptide consisting of a region selected from the random amino acid sequences. The preparation of the polypeptides was entrusted to GL Biochem (Shanghai). […] The measurement conditions were in accordance with those in the paragraph 3).
The CH1-CL domain forming a non-native three-dimensional structure prepared by the same method as in the paragraph 3) was immobilized on a sensor chip CM5 (GE Healthcare) by amine coupling, and the binding thereof to AF.ab31, AF.ab9, and alanine substitution products was measured with Biacore T100 (FIGS. 6 and 7, Table 3).

human monoclonal IgG = test: SPR of IgG (native or acid-treated) on immobilized AF.ab9; format: binding
Protocol: (§1) Preparation of the synthesized polypeptide was entrusted to GL Biochem (Shanghai). AF.ab9 was dissolved in a boric acid buffer solution (10 mM Borate-Na, 1 M NaCl, pH 8.5) and was immobilized on a sensor chip CM5 (GE Healthcare) by amine coupling.
(§2) Subsequently, human monoclonal IgG, Fab region, and Fc region having a native three-dimensional structure and a non-native three-dimensional structure were prepared. The Fab region and Fc region were prepared by subjecting human monoclonal IgG to papain digestion with Pierce (registered trademark) Fab Preparation Kit (Thermo Fisher Scientific Inc.) and then to purification by affinity chromatography using MabSelect SuRe (GE Healthcare), anion exchange chromatography using HiTrap DEAE (GE Healthcare), and gel filtration chromatography using Superdex 200 (GE Healthcare). The IgG, Fab region, and Fc region were each diluted to 5 μM and dialyzed against an acid buffer solution (50 mM NaH2PO4, 100 mM NaCl, pH 2.0) for 12 hours for accelerating acid denaturation and dialyzed against an HBS-T buffer solution for neutralization.
Subsequently, an example of evaluating the affinity of AF.ab9 for IgG treated with buffer solutions having different degrees of acidity will be described. IgG was dissolved in an HBS buffer solution (10 mM HEPES, 150 mM NaCl, pH 7.4) at a concentration of 5 μM. The acidity of a sodium phosphate buffer solution (50 mM NaH2PO4, 100 mM NaCl) as an acid buffer solution was adjusted to three degrees of pH 2.0, pH 3.0, and pH 4.0. An antibody was dialyzed against each of the buffer solutions for 12 hours and was then dialyzed against an HBS-T buffer solution for neutralization. The affinity of each of the resulting acid-treated IgG for AF.ab9 was measured by SPR (FIG. 4, Table 2). The SPR test was conducted in accordance with the conditions described above in this paragraph. […] Regarding the acid denaturation of the CH1-CL domain, it has been reported as the results of analysis by spectroscopic methods such as CD spectrum and fluorescence spectrum that a clear change in the three-dimensional structure of the CH1-CL domain occurs between pH 4.0 and pH 3.0 (Non Patent Literature 32).

Fab region = test: SPR of Fab region (native or acid-treated) on immobilized AF.ab9; format: binding, human
Protocol: as §1, §2

Fc region = test: SPR of Fc region (native or acid-treated) on immobilized AF.ab9; format: binding, human
Protocol: as §1, §2

| Sequence | Non-native CH1-CL domain (whether affinity was present or not) [1] | affinity / binding response compared to AF.ab9 [1] | other results |
| --- | --- | --- | --- |
| PNSGGGGSYDPETGTWAQEIRLILNW [AF.ab9 P17A] | Binding | the binding response decreased |  |
| PNSGGGGSYDPETGTWPQWITLTITY (Synthetic IgG binding peptide) [AF.ab31] | Binding | substantially equivalent |  |
| PQEIRLILNW (Synthetic IgG binding peptide) [AF.ab9 arm] | showed affinity; also recorded: Binding |  |  |
| PNSGGGGSYDPETGTWPQEIRLIANW [AF.ab9 L24A] | Binding | the binding response decreased |  |
| PNSGGGGSYDPETGTWPQEIRLILNW (Synthetic IgG binding peptide) [AF.ab9] | showed affinity; also recorded: Binding |  | affinity for AF.ab9: pH 2.0-treated IgG (human monoclonal IgG; IgG treated with acid buffer pH 2.0 for 12 hours, neutralized, 2-0.125 μM): strong binding response; also recorded: clear binding responses; affinity for AF.ab9: pH 3.0-treated IgG (human monoclonal IgG; IgG treated with acid buffer pH 3.0, neutralized, 2-0.125 μM): clear binding responses; affinity for AF.ab9: pH 4.0-treated IgG (human monoclonal IgG; IgG treated with acid buffer pH 4.0, neutralized, 2-0.125 μM): did not show a significant binding response; also recorded: No-binding; affinity for AF.ab9: Native IgG (human monoclonal IgG; acid-untreated IgG 2-0.125 μM, AF.ab9 immobilized on CM5): did not show a significant binding response; also recorded: No-binding; affinity for AF.ab9: pH 2.0-treated Fab (Fab region; Fab region treated with acid buffer pH 2.0, neutralized, 2-0.125 μM): strong binding response; affinity for AF.ab9: Native Fab (Fab region; acid-untreated Fab region 2-0.125 μM): did not show a significant binding response; also recorded: No-binding; affinity for AF.ab9: pH 2.0-treated Fc (Fc region; Fc region treated with acid buffer pH 2.0, neutralized, 2-0.125 μM): No-binding; affinity for AF.ab9: Native Fc (Fc region; acid-untreated Fc region 2-0.125 μM): did not show a binding response; also recorded: No-binding; binding response to the acid-treated Fc region compared with that on the non-native structure of the Fab region (Fc region; pH 2.0-treated Fc versus pH 2.0-treated Fab, SPR): 1/100 |
| PNSGGGGSYDPETGTWPAEIRLILNW [AF.ab9 Q18A] | Binding |  |  |
